Target: the molecule itself
Test: AUC; analytical ultracentrifugation of apo-AAC(2′)-Id; 20 mM Tris-HCl (pH 8.0), 150 mM NaCl, 293 K, 40,000 rpm, monitored at 280 nm, SEDFIT

B1: Aminoglycoside 2′-N-acetyltransferase from Mycolicibacterium smegmatis [AAC(2′)-Id] (enzyme)
chain: MLTQHVSEARTRGAIHTARLIHTSDLDQETRDGARRMVIEAFRDPSGDSDFTDDFTDDDWDHALGGMHALISHHGALIAHGAVVQRRLMYRGPDGRGHALRCGYVEAVAVREDRRGDGLGTAVLDALEQVIRGAYQIGALSASDIARPMYIARGWLSWEGPTSVLTPTEGIVRTPEDDRSLFVLPVDLPDGLELDTAREITCDWRSGDPW
notes: also called apo-AAC(2′)-Id; AAC(2′) from M. smegmatis; source: E. coli BL21(DE3), purified (Ni-NTA, Q-Sepharose, thrombin cleavage, Superdex 200); not shown: His-tag, N-terminal, cleaved
- stoichiometry N: 2
